Reference: publication PMC3109872

Target: ETV5 DNA-binding domain (pET-41a) (UniProt Q9CXC9 368-448)
Experiment: EMSA

Chain of ETV5 DNA-binding domain (pET-41a) (Q9CXC9 368-448): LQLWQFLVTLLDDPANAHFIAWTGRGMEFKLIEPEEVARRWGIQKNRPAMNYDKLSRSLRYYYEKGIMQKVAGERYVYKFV

B1: EBS3 probe (Ccl9) (dsDNA)
DNA 1: CTCTAGTACCAGGGAATTTAACACCCTCTTC
DNA 2: GAAGAGGGTGTTAAATTCCCTGGTACTAGAG
Q: Does B1 bind?
A: Result: binds
